Data as given in patent US20190330277A1 (PIRBRIGHT INSTITUTE, published 2019).

B1: MPE8 Fab (Fab, V domains shown)
VH: EVQLVESGGGLVKPGGSLRLSCAASGFTFSSYSMNWVRQAPGKGLEWVSSISASSSYSDYADSAKGRFTISRDNAKTSLFLQMNSLRAEDTAIYFCARARATGYSSITPYFDIWGQGTLVTVSS
VL: QSVVTQTPSVSGAPGQRVTISCTGSSSNIGAGYDVHWYQQLPGTAPKLLIYDNNNRPSGVPDRFSASKSGTSASLAITGLQAEDEADYYCQSYDRNLSGVFGTGTKVTVL
notes: also called mAb MPE8
B2: D25 Fab (Fab, V domains shown)
VH: QVQLVQSGAEVKKPGSSVMVSCQASGGPLRNYIINWLRQAPGQGPEWMGGIIPVLGTVHYAPKFQGRVTITADESTDTAYIHLISLRSEDTAMYYCATETALVVSTTYLPHYFDNWGQGTLVTVSS
VL: DIQMTQSPSSLSAAVGDRVTITCQASQDIVNYLNWYQQKPGKAPKLLIYVASNLETGVPSRFSGSGSGTDFSLTISSLQPEDVATYYCQQYDNLPLTFGGGTKVEIK
notes: also called mAb D25
B3: AM14 Fab (Fab, V domains shown)
VH: EVQLVESGGGVVQPGRSLRLSCAASGFSFSHYAMHWVRQAPGKGLEWVAVISYDGENTYYADSVKGRFSISRDNSKNTVSLQMNSLRPEDTALYYCARDRIVDDYYYYGMDVWGQGATVTVSS
VL: DIQMTQSPSSLSASVGDRVTITCQASQDIKKYLNWYHQKPGKVPELLMHDASNLETGVPSRFSGRGSGTDFTLTISSLQPEDIGTYYCQQYDNLPPLTFGGGTKVEIKR
notes: also called mAb AM14

What was measured:
Test in all cases: biolayer interferometry (Octet), variant on Ni-NTA tip, Fab in solution
bRSV 391-2 postF = bRSV 391-2 postF (bovine respiratory syncytial virus, …, UniProt P22167 26-109; P22167 147-513)
bRSV RB94 postF = bRSV RB94 postF (bovine respiratory syncytial virus, …, UniProt P23728 26-109; P23728 147-513)
bRSV ATue51908 DSCav1 = bRSV ATue51908 DSCav1 (bovine respiratory syncytial virus, …, UniProt P22167 26-109)
[1] = target: bRSV ATue51908 sc9-10 DS-Cav1 A149C-Y458C (bovine respiratory syncytial virus, …)
[2] = target: bRSV 391-2 sc9 DS-Cav1 Q98C-Q361C (bovine respiratory syncytial virus, …)
bRSV 391-2 DSCav1 = bRSV 391-2 DSCav1 (bovine respiratory syncytial virus, …, UniProt P22167 26-109)
[3] = target: bRSV 391-2 sc9-10 DS-Cav1 Q98C-Q361C (bovine respiratory syncytial virus, …)
bRSV ATue51908 postF = bRSV ATue51908 postF (bovine respiratory syncytial virus, …, UniProt P22167 26-109; P22167 147-513)

Binder | Kd (bRSV 391-2 postF) [nM] | Kd (bRSV RB94 postF) [nM] | Kd (bRSV ATue51908 DSCav1) [nM] | Kd [1] [nM] | Kd [2] [nM] | Kd (bRSV 391-2 DSCav1) [nM] | Kd [3] [nM] | Kd (bRSV ATue51908 postF) [nM]
B1 | > 1000 | > 1000 | – | – | – | – | – | –
B2 | – | – | 10.8 | 420 | – | – | – | –
B3 | > 1000 | > 1000 | 4.8 | 12.8 | 8.6 | 1.8 | 12.8 | > 1000
